This note sets out measurements from article PMC3195669 (Biologics : Targets & Therapy, 2011).

The data set deals with the molecule itself. The data set can be described thus: SDS-PAGE without heat denaturation or reducing agent.

In general, stoichiometry N refers to a count of units in the complex or per binding partner.

B1: recombinant mouse full-length adiponectin subfractions, unlabeled (natural protein, UniProt Q60994 18-247, looked up)
chain: EDDVTTTEELAPALVPPPKGTCAGWMAGIPGHPGHNGTPGRDGRDGTPGEKGEKGDAGLLGPKGETGDVGMTGAEGPRGFPGTPGRKGEPGEAAYVYRSAFSVGLETRVTVPNVPIRFTKIFYNQQNHYDGSTGKFYCNIPGLYYFSYHITVYMKDVKVSLFKKDKAVLFTYDQYQEKNVDQASGSVLLHLEVGDQVWLQVYGDGDHNGLYADNVNDSTFTGFLLYHDTN
In the case of B1, the “stoichiometry N” value worked out at 6.
